Several values for one entry are separate records, joined by “and”; a condition that tells them apart may be missing. Identical values can stand only once.
B1: KB001 mouse Fab VL T100M (Fab, V domains shown)
VH: EVQLKQSGPGLVAPSQSLSITCTVSGFSLSIYSVHWVRQPPGKGLEWLGMIWGGGSSDYNSALKSRLSISKDNSKSQVFLKMNSLQTDDTAMYYCARNGNFYAMDYWGQGTSVTVSS
VL: QIVLTQSPAIMSASLGERVTMTCTASSSVSSSFLHWYQQKPGSSPQLWIYSTSNLASGVPARFSGSGSGTSYSLTISSMEAEDAATYYCHQYHHSPYIYMFGGGTKLEIK
B2: KB001 mouse Fab VL A25V (Fab, V domains shown)
VH: EVQLKQSGPGLVAPSQSLSITCTVSGFSLSIYSVHWVRQPPGKGLEWLGMIWGGGSSDYNSALKSRLSISKDNSKSQVFLKMNSLQTDDTAMYYCARNGNFYAMDYWGQGTSVTVSS
VL: QIVLTQSPAIMSASLGERVTMTCTVSSSVSSSFLHWYQQKPGSSPQLWIYSTSNLASGVPARFSGSGSGTSYSLTISSMEAEDAATYYCHQYHHSPYIYTFGGGTKLEIK
B3: KB001 mouse Fab VL T24Q (Fab, V domains shown)
VH: EVQLKQSGPGLVAPSQSLSITCTVSGFSLSIYSVHWVRQPPGKGLEWLGMIWGGGSSDYNSALKSRLSISKDNSKSQVFLKMNSLQTDDTAMYYCARNGNFYAMDYWGQGTSVTVSS
VL: QIVLTQSPAIMSASLGERVTMTCQASSSVSSSFLHWYQQKPGSSPQLWIYSTSNLASGVPARFSGSGSGTSYSLTISSMEAEDAATYYCHQYHHSPYIYTFGGGTKLEIK
B4: KB001 mouse Fab VL S26G (Fab, V domains shown)
VH: EVQLKQSGPGLVAPSQSLSITCTVSGFSLSIYSVHWVRQPPGKGLEWLGMIWGGGSSDYNSALKSRLSISKDNSKSQVFLKMNSLQTDDTAMYYCARNGNFYAMDYWGQGTSVTVSS
VL: QIVLTQSPAIMSASLGERVTMTCTAGSSVSSSFLHWYQQKPGSSPQLWIYSTSNLASGVPARFSGSGSGTSYSLTISSMEAEDAATYYCHQYHHSPYIYTFGGGTKLEIK
B5: KB001 mouse Fab VL A25E (Fab, V domains shown)
VH: EVQLKQSGPGLVAPSQSLSITCTVSGFSLSIYSVHWVRQPPGKGLEWLGMIWGGGSSDYNSALKSRLSISKDNSKSQVFLKMNSLQTDDTAMYYCARNGNFYAMDYWGQGTSVTVSS
VL: QIVLTQSPAIMSASLGERVTMTCTESSSVSSSFLHWYQQKPGSSPQLWIYSTSNLASGVPARFSGSGSGTSYSLTISSMEAEDAATYYCHQYHHSPYIYTFGGGTKLEIK
B6: KB001 mouse Fab VL T24G (Fab, V domains shown)
VH: EVQLKQSGPGLVAPSQSLSITCTVSGFSLSIYSVHWVRQPPGKGLEWLGMIWGGGSSDYNSALKSRLSISKDNSKSQVFLKMNSLQTDDTAMYYCARNGNFYAMDYWGQGTSVTVSS
VL: QIVLTQSPAIMSASLGERVTMTCGASSSVSSSFLHWYQQKPGSSPQLWIYSTSNLASGVPARFSGSGSGTSYSLTISSMEAEDAATYYCHQYHHSPYIYTFGGGTKLEIK
B7: KB001 mouse Fab VL T24M (Fab, V domains shown)
VH: EVQLKQSGPGLVAPSQSLSITCTVSGFSLSIYSVHWVRQPPGKGLEWLGMIWGGGSSDYNSALKSRLSISKDNSKSQVFLKMNSLQTDDTAMYYCARNGNFYAMDYWGQGTSVTVSS
VL: QIVLTQSPAIMSASLGERVTMTCMASSSVSSSFLHWYQQKPGSSPQLWIYSTSNLASGVPARFSGSGSGTSYSLTISSMEAEDAATYYCHQYHHSPYIYTFGGGTKLEIK
B8: KB001 mouse Fab VL T100S (Fab, V domains shown)
VH: EVQLKQSGPGLVAPSQSLSITCTVSGFSLSIYSVHWVRQPPGKGLEWLGMIWGGGSSDYNSALKSRLSISKDNSKSQVFLKMNSLQTDDTAMYYCARNGNFYAMDYWGQGTSVTVSS
VL: QIVLTQSPAIMSASLGERVTMTCTASSSVSSSFLHWYQQKPGSSPQLWIYSTSNLASGVPARFSGSGSGTSYSLTISSMEAEDAATYYCHQYHHSPYIYSFGGGTKLEIK
B9: KB001 mouse Fab VL T100L (Fab, V domains shown)
VH: EVQLKQSGPGLVAPSQSLSITCTVSGFSLSIYSVHWVRQPPGKGLEWLGMIWGGGSSDYNSALKSRLSISKDNSKSQVFLKMNSLQTDDTAMYYCARNGNFYAMDYWGQGTSVTVSS
VL: QIVLTQSPAIMSASLGERVTMTCTASSSVSSSFLHWYQQKPGSSPQLWIYSTSNLASGVPARFSGSGSGTSYSLTISSMEAEDAATYYCHQYHHSPYIYLFGGGTKLEIK
B10: KB001 mouse Fab VL A25Y (Fab, V domains shown)
VH: EVQLKQSGPGLVAPSQSLSITCTVSGFSLSIYSVHWVRQPPGKGLEWLGMIWGGGSSDYNSALKSRLSISKDNSKSQVFLKMNSLQTDDTAMYYCARNGNFYAMDYWGQGTSVTVSS
VL: QIVLTQSPAIMSASLGERVTMTCTYSSSVSSSFLHWYQQKPGSSPQLWIYSTSNLASGVPARFSGSGSGTSYSLTISSMEAEDAATYYCHQYHHSPYIYTFGGGTKLEIK
B11: KB001 mouse Fab VL A25G (Fab, V domains shown)
VH: EVQLKQSGPGLVAPSQSLSITCTVSGFSLSIYSVHWVRQPPGKGLEWLGMIWGGGSSDYNSALKSRLSISKDNSKSQVFLKMNSLQTDDTAMYYCARNGNFYAMDYWGQGTSVTVSS
VL: QIVLTQSPAIMSASLGERVTMTCTGSSSVSSSFLHWYQQKPGSSPQLWIYSTSNLASGVPARFSGSGSGTSYSLTISSMEAEDAATYYCHQYHHSPYIYTFGGGTKLEIK
B12: KB001 mouse Fab VL S26T (Fab, V domains shown)
VH: EVQLKQSGPGLVAPSQSLSITCTVSGFSLSIYSVHWVRQPPGKGLEWLGMIWGGGSSDYNSALKSRLSISKDNSKSQVFLKMNSLQTDDTAMYYCARNGNFYAMDYWGQGTSVTVSS
VL: QIVLTQSPAIMSASLGERVTMTCTATSSVSSSFLHWYQQKPGSSPQLWIYSTSNLASGVPARFSGSGSGTSYSLTISSMEAEDAATYYCHQYHHSPYIYTFGGGTKLEIK
B13: KB001 mouse Fab VL T24N/G67D (Fab, V domains shown)
VH: EVQLKQSGPGLVAPSQSLSITCTVSGFSLSIYSVHWVRQPPGKGLEWLGMIWGGGSSDYNSALKSRLSISKDNSKSQVFLKMNSLQTDDTAMYYCARNGNFYAMDYWGQGTSVTVSS
VL: QIVLTQSPAIMSASLGERVTMTCNASSSVSSSFLHWYQQKPGSSPQLWIYSTSNLASGVPARFSGSDSGTSYSLTISSMEAEDAATYYCHQYHHSPYIYTFGGGTKLEIK
B14: KB001 mouse Fab VL T24L (Fab, V domains shown)
VH: EVQLKQSGPGLVAPSQSLSITCTVSGFSLSIYSVHWVRQPPGKGLEWLGMIWGGGSSDYNSALKSRLSISKDNSKSQVFLKMNSLQTDDTAMYYCARNGNFYAMDYWGQGTSVTVSS
VL: QIVLTQSPAIMSASLGERVTMTCLASSSVSSSFLHWYQQKPGSSPQLWIYSTSNLASGVPARFSGSGSGTSYSLTISSMEAEDAATYYCHQYHHSPYIYTFGGGTKLEIK
B15: KB001 mouse Fab VL T24A (Fab, V domains shown)
VH: EVQLKQSGPGLVAPSQSLSITCTVSGFSLSIYSVHWVRQPPGKGLEWLGMIWGGGSSDYNSALKSRLSISKDNSKSQVFLKMNSLQTDDTAMYYCARNGNFYAMDYWGQGTSVTVSS
VL: QIVLTQSPAIMSASLGERVTMTCAASSSVSSSFLHWYQQKPGSSPQLWIYSTSNLASGVPARFSGSGSGTSYSLTISSMEAEDAATYYCHQYHHSPYIYTFGGGTKLEIK
B16: KB001 mouse Fab VL T24I (Fab, V domains shown)
VH: EVQLKQSGPGLVAPSQSLSITCTVSGFSLSIYSVHWVRQPPGKGLEWLGMIWGGGSSDYNSALKSRLSISKDNSKSQVFLKMNSLQTDDTAMYYCARNGNFYAMDYWGQGTSVTVSS
VL: QIVLTQSPAIMSASLGERVTMTCIASSSVSSSFLHWYQQKPGSSPQLWIYSTSNLASGVPARFSGSGSGTSYSLTISSMEAEDAATYYCHQYHHSPYIYTFGGGTKLEIK
B17: KB001 mouse Fab VL S26P (Fab, V domains shown)
VH: EVQLKQSGPGLVAPSQSLSITCTVSGFSLSIYSVHWVRQPPGKGLEWLGMIWGGGSSDYNSALKSRLSISKDNSKSQVFLKMNSLQTDDTAMYYCARNGNFYAMDYWGQGTSVTVSS
VL: QIVLTQSPAIMSASLGERVTMTCTAPSSVSSSFLHWYQQKPGSSPQLWIYSTSNLASGVPARFSGSGSGTSYSLTISSMEAEDAATYYCHQYHHSPYIYTFGGGTKLEIK
B18: KB001 mouse Fab VL A25P (Fab, V domains shown)
VH: EVQLKQSGPGLVAPSQSLSITCTVSGFSLSIYSVHWVRQPPGKGLEWLGMIWGGGSSDYNSALKSRLSISKDNSKSQVFLKMNSLQTDDTAMYYCARNGNFYAMDYWGQGTSVTVSS
VL: QIVLTQSPAIMSASLGERVTMTCTPSSSVSSSFLHWYQQKPGSSPQLWIYSTSNLASGVPARFSGSGSGTSYSLTISSMEAEDAATYYCHQYHHSPYIYTFGGGTKLEIK
B19: KB001 mouse Fab VL S27H (Fab, V domains shown)
VH: EVQLKQSGPGLVAPSQSLSITCTVSGFSLSIYSVHWVRQPPGKGLEWLGMIWGGGSSDYNSALKSRLSISKDNSKSQVFLKMNSLQTDDTAMYYCARNGNFYAMDYWGQGTSVTVSS
VL: QIVLTQSPAIMSASLGERVTMTCTASHSVSSSFLHWYQQKPGSSPQLWIYSTSNLASGVPARFSGSGSGTSYSLTISSMEAEDAATYYCHQYHHSPYIYTFGGGTKLEIK
B20: KB001 mouse Fab VL T24N (Fab, V domains shown)
VH: EVQLKQSGPGLVAPSQSLSITCTVSGFSLSIYSVHWVRQPPGKGLEWLGMIWGGGSSDYNSALKSRLSISKDNSKSQVFLKMNSLQTDDTAMYYCARNGNFYAMDYWGQGTSVTVSS
VL: QIVLTQSPAIMSASLGERVTMTCNASSSVSSSFLHWYQQKPGSSPQLWIYSTSNLASGVPARFSGSGSGTSYSLTISSMEAEDAATYYCHQYHHSPYIYTFGGGTKLEIK
B21: KB001 mouse Fab VL T24K/R18S (Fab, V domains shown)
VH: EVQLKQSGPGLVAPSQSLSITCTVSGFSLSIYSVHWVRQPPGKGLEWLGMIWGGGSSDYNSALKSRLSISKDNSKSQVFLKMNSLQTDDTAMYYCARNGNFYAMDYWGQGTSVTVSS
VL: QIVLTQSPAIMSASLGESVTMTCKASSSVSSSFLHWYQQKPGSSPQLWIYSTSNLASGVPARFSGSGSGTSYSLTISSMEAEDAATYYCHQYHHSPYIYTFGGGTKLEIK

The binders below were run against HRgpA-6H (Porphyromonas gingivalis) (UniProt P28784) (assay: ELISA, coated HRgpA-6H).
UniProt P28784, sequence (P28784 228-860 limits assumed): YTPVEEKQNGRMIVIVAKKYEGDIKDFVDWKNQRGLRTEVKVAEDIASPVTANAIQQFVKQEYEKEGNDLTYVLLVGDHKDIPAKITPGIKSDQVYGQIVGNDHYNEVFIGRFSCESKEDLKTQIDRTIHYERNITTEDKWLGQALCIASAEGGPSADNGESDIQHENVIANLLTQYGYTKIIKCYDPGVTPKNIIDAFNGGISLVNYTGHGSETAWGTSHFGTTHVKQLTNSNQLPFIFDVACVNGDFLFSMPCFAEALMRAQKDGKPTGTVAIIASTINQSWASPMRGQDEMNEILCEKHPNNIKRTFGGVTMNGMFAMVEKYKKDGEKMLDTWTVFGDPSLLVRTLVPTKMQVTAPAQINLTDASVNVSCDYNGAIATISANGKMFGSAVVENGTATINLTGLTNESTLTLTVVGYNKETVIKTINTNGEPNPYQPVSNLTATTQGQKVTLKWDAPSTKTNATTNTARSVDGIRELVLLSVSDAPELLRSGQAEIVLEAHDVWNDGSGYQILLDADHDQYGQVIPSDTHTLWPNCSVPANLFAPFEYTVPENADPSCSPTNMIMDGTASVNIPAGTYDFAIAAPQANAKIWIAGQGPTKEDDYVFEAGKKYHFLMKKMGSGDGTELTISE
With B1 the OD450 nm was 0.589 and the Ratio OD(Variant)/OD(WT) was 1.12. B2 was tested, and the OD450 nm was 0.768 and the Ratio OD(Variant)/OD(WT) was 0.981. B3 was tested, and the OD450 nm was 0.765 and the Ratio OD(Variant)/OD(WT) was 0.995. For B4, the OD450 nm was 0.73 and the Ratio OD(Variant)/OD(WT) was 0.932. With B5 the OD450 nm was 0.655 and the Ratio OD(Variant)/OD(WT) was 0.837. B6 was tested, and the OD450 nm was 0.686 and 0.735 and the Ratio OD(Variant)/OD(WT) was 0.892 and 0.956. With B7 the OD450 nm was 0.75 and 0.797 and the Ratio OD(Variant)/OD(WT) was 0.975 and 1.04. In the case of B8, the OD450 nm is reported as 0.602 and 0.664 and 0.625 and the Ratio OD(Variant)/OD(WT) is reported as 1.15 and 1.27 and 1.19. In the case of B9, the OD450 nm is reported as 0.587 and 0.566 and the Ratio OD(Variant)/OD(WT) is reported as 1.12 and 1.08. B10 was tested, and the OD450 nm was 0.755 and 0.757 and the Ratio OD(Variant)/OD(WT) was 0.964 and 0.967. B11 was tested, and the OD450 nm was 0.668 and 0.699 and 0.673 and the Ratio OD(Variant)/OD(WT) was 0.853 and 0.893 and 0.86. B12 was tested, and the OD450 nm was 0.761 and the Ratio OD(Variant)/OD(WT) was 0.972. B13 was tested, and the OD450 nm was 0.755 and the Ratio OD(Variant)/OD(WT) was 0.982. B14 was tested, and the OD450 nm was 0.753 and 0.752 and 0.667 and the Ratio OD(Variant)/OD(WT) was 0.979 and 0.978 and 0.867. Binder B15 has an OD450 nm of 0.757 and a Ratio OD(Variant)/OD(WT) of 0.984. With B16 the OD450 nm was 0.741 and the Ratio OD(Variant)/OD(WT) was 0.964. In the case of B17, the OD450 nm is reported as 0.644 and 0.677 and the Ratio OD(Variant)/OD(WT) is reported as 0.822 and 0.865. For B18, the OD450 nm was 0.742 and 0.766 and 0.749 and the Ratio OD(Variant)/OD(WT) was 0.948 and 0.978 and 0.957. For B19, the OD450 nm was 0.664 and 0.63 and 0.726 and the Ratio OD(Variant)/OD(WT) was 0.885 and 0.839 and 0.967. In the case of B20, the OD450 nm is reported as 0.715 and 0.8 and the Ratio OD(Variant)/OD(WT) is reported as 0.93 and 1.04. B21 gave an OD450 nm of 0.761 and a Ratio OD(Variant)/OD(WT) of 0.99.

— patent US20240400654A1
